Laboratory results: the Human Domainome abundance scans (Beltran et al. 2025)

B1: Nuclear receptor subfamily 1 group D member 2, residues 103 to 171; numbered along this chain, Q14995 (parent)
chain: CKVCGDVASGFHYGVHACEGCKGFFRRSIQQNIQYKKCLKNENCSIMRMNRNRCQQCRFKKCLSVGMSR

Variants of: B1
Experiment: abundance fitness (aPCA) (normalised: wild type 0, dead -1); higher = more abundant; growth selection in yeast, the domain comes from the species named
Settings: Homo sapiens

Abundance fitness, by site and new letter:
E42: S -0.172; M -0.008; R -0.639; Q -0.23; D -0.025; N -0.004; W -0.642; V -0.798
Q30: M -0.521; A 0.04; F -0.634; K -0.195; S -0.364; N -0.43; L -0.023; D 0.022; T 0.126; V -0.092; P -0.523; I -0.553; R -0.557
C38: D -0.894; F -0.864; W -0.521; T -0.768; E -0.857; P -0.682; L -1.01; S -0.579; G -0.836; R -0.842; Q -0.803; A -0.74; V -0.551; Y -0.785
C44: Y -0.183
I29: F -0.081; Y -0.813; N -0.058; V -0.17; Q -0.339; W -0.412; K -0.98; E -0.675; A -0.723; S -0.7; M -0.14; R -0.601; L -0.19; G -0.821; T -0.282; C -0.388
K37: I -0.279; T -0.234; N 0.375; C -0.495; L -0.473; S 0.011; P 0.27; R -0.391; V -0.387; H -0.241; A 0.064; D 0.255; Y -0.631; W -0.225; M 0.279; E -0.04; Q -0.075
M47: K -0.185; S 0.184; A 0.006; Y -0.482; E 0.408; V -0.051; T 0.307; P -0.237; D 0.283; I -0.421; L -0.057; H 0.07; R -0.062
K40: Y 0.26; T 0.1; A 0.106; N 0.246; S 0.092; W 0.227; H -0.12; G 0.202; D 0.115; R -0.029; V -0.273; Q 0.206; P -0.532; L -0.042; C -0.615; F 0.09; M -0.059
S28: T 0.24; W -0.733; V -0.419; C 0.179; G -0.748; K -0.801; M -0.291
N43: D -0.222; C -0.083; R -0.12; W -0.79; P -0.472; G -0.011; L -0.115; Q -0.061; V -0.181; K -0.231; M -0.373; H -0.37; F -0.361; A 0.01; T -0.215; S -0.317; E 0.017
R27: N 0.237; G -0.433; H 0.305; F -0.581; L -0.154; S -0.51; W 0.091; K -0.275; T -0.034; V 0.094; E 0.216; M 0.073; D 0.126
L39: Y -0.02; Q -0.068; E 0.262; A 0.084; D 0.321; G -0.163; N 0.018; W -0.559; K -0.128; P -0.106; M 0.1; S 0.165; T -0.121; F -0.57; I 0.161; H -0.167
R26: K -0.349; I 0.342; T 0.092; H -0.359; E -0.032; N 0.135; W 0.408; F -0.326; Q 0.214; V -0.383; Y -0.246; M 0.319; L -0.226; G -0.092; A 0.133
